The values that follow are results of earlier work, collected in article PMC6679882.

For this series, the target named is IL-18BP (Homo sapiens) (UniProt O95998).
Chain of IL-18BP (Homo sapiens) (O95998 31-194): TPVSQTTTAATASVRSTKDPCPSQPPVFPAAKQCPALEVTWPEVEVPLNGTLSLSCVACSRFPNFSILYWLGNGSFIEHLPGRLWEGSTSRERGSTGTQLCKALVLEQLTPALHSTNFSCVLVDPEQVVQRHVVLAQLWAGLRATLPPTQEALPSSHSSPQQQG

Chain of IL-18 (Q14116 37-193): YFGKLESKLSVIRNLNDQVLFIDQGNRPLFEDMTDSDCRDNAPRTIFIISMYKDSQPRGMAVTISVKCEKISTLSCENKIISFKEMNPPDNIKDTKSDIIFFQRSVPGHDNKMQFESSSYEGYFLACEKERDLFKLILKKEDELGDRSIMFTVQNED

For IL-18 (from UniProt Q14116), the dissociation constant Kd was 0.4 nM.
